Results from the supplement of paper PMC9233669.
This sample holds only a part of the variants without activity.

How the values were obtained:
biotinyl-Val-oxazolone = assay: self-aminoacylation, catalytic enhancement (BVO) (fold over background); higher = more active; k-Seq, kA / k0A0; sequences stand for … in GGGAAUGGAUCCACAUCUACGAAUUC…UUCACUGCAGACUUGACGAAGCUG
In short: (§1)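 Each biotinyl-aminoacyl-oxazolone, at 2–1250 μM, was incubated with mutagenized RNA pools (0.43 μM) carrying a 21-nt variable region. The 50 μL reactions contained HEPES/NaCl/KCl/MgCl2/CaCl2 buffer with 5% acetonitrile at pH 6.9–7.0 and ran for 90 minutes at room temperature. After streptavidin capture, RNA was measured by qPCR in triplicate and by Illumina sequencing, and catalytic enhancement was calculated as median kA over the uncatalyzed rate from a pseudo-first-order fit of per-sequence fraction reacted.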

biotinyl-Leu-oxazolone = assay: self-aminoacylation, catalytic enhancement (BLO) (fold over background); higher = more active; k-Seq, kA / k0A0; sequences stand for … in GGGAAUGGAUCCACAUCUACGAAUUC…UUCACUGCAGACUUGACGAAGCUG
In short: as §1

biotinyl-Trp-oxazolone = assay: self-aminoacylation, catalytic enhancement (BWO) (fold over background); higher = more active; k-Seq, kA / k0A0; sequences stand for … in GGGAAUGGAUCCACAUCUACGAAUUC…UUCACUGCAGACUUGACGAAGCUG
In short: as §1

biotinyl-Ile-oxazolone = assay: self-aminoacylation, catalytic enhancement (BIO) (fold over background); higher = more active; k-Seq, kA / k0A0; sequences stand for … in GGGAAUGGAUCCACAUCUACGAAUUC…UUCACUGCAGACUUGACGAAGCUG
In short: as §1

biotinyl-Phe-oxazolone = assay: self-aminoacylation, catalytic enhancement (BFO) (fold over background); higher = more active; k-Seq, kA / k0A0; sequences stand for … in GGGAAUGGAUCCACAUCUACGAAUUC…UUCACUGCAGACUUGACGAAGCUG
In short: as §1

biotinyl-Met-oxazolone = assay: self-aminoacylation, catalytic enhancement (BMO) (fold over background); higher = more active; k-Seq, kA / k0A0; sequences stand for … in GGGAAUGGAUCCACAUCUACGAAUUC…UUCACUGCAGACUUGACGAAGCUG
In short: as §1

Row | Sequence | self-aminoacylation (biotinyl-Val-oxazolone) | self-aminoacylation (biotinyl-Leu-oxazolone) | self-aminoacylation (biotinyl-Trp-oxazolone) | self-aminoacylation (biotinyl-Ile-oxazolone) | self-aminoacylation (biotinyl-Phe-oxazolone) | self-aminoacylation (biotinyl-Met-oxazolone)
1 | AAGUUUGCUAAUAGUCGCUAG [Fam3.1 aminoacylation ribozyme variant] | 0.852 | 0.809 | 1.05 | 0.852 | 1.68 | 0.813
2 | AAGUUUGCUAAUAGUCGGUAG [Fam3.1 aminoacylation ribozyme variant] | 0.771 | 1.03 | 0.993 | 0.974 | 1.66 | 0.878
3 | AAGUUUGCUAAUAGUCUCCAG [Fam3.1 aminoacylation ribozyme variant] | 0.947 | 0.909 | 1.02 | 1.1 | 1.59 | 0.855
4 | AAGUUUGCUAAUAGUGGCAAU [Fam3.1 aminoacylation ribozyme variant] | 1.16 | 0.961 | 0.811 | 1.08 | 1.43 | 1.16
5 | AAGUUUGCUAAUAGUGGCGAG [Fam3.1 aminoacylation ribozyme variant] | 0.88 | 1.09 | 0.531 | 0.939 | 1.2 | 0.875
6 | AAGUUUGCUAAUAGUGGCUAG [Fam3.1 aminoacylation ribozyme variant] | 0.862 | 0.65 | 0.748 | 0.811 | 1.52 | 0.777
7 | AAGUUUGCUAAUAGUGGUAAG [Fam3.1 aminoacylation ribozyme variant] | 0.801 | 0.788 | 0.724 | 0.992 | 0.868 | 0.769
8 | AAGUUUGCUAAUAGUUGCAAC [Fam3.1 aminoacylation ribozyme variant] | 0.83 | 0.853 | 0.841 | 1.06 | 0.862 | 0.933
9 | AAGUUUGCUAAUAUUCGCAAA [Fam3.1 aminoacylation ribozyme variant] | 1.32 | 1.25 | 2.04 | 1.2 | 0.994 | 1.75
10 | AAGUUUGCUAAUAUUCGCAAU [Fam3.1 aminoacylation ribozyme variant] | 1.05 | 1.16 | 1.33 | 1.31 | 1.32 | 1.11
11 | AAGUUUGCUAAUCGGCGCAAG [Fam3.1 aminoacylation ribozyme variant] | 1.14 | 1.05 | 0.944 | 0.842 | 2.32 | 1.03
12 | AAGUUUGCUAAUGGGCGCAAG [Fam3.1 aminoacylation ribozyme variant] | 0.874 | 1.08 | 1.5 | 0.937 | 0.784 | 0.695
13 | AAGUUUGCUAAUGGUCGAAAG [Fam3.1 aminoacylation ribozyme variant] | 0.897 | 0.591 | 0.713 | 0.687 | 1.03 | 0.723
14 | AAGUUUGCUAAUGGUCGCGAG [Fam3.1 aminoacylation ribozyme variant] | 1.27 | 1.59 | 1.82 | 1.21 | 8.04 | 1.15
15 | AAGUUUGCUAAUUGUAGCAAG [Fam3.1 aminoacylation ribozyme variant] | 1.03 | 0.95 | 1.02 | 0.854 | 0.987 | 0.979
16 | AAGUUUGCUAAUUGUCGCAAG [Fam3.1 aminoacylation ribozyme variant] | 0.846 | 0.764 | 1.06 | 0.834 | 1.37 | 0.788
17 | AAGUUUGCUAAUUGUCUCAAG [Fam3.1 aminoacylation ribozyme variant] | 0.881 | 0.852 | 0.743 | 0.937 | 1.05 | 0.943
18 | AAGUUUGCUACUAGUCCCAAG [Fam3.1 aminoacylation ribozyme variant] | 0.759 | 0.899 | 0.786 | 0.894 | 0.773 | 0.931
19 | AAGUUUGCUAGAAGUCGCAAG [Fam3.1 aminoacylation ribozyme variant] | 0.656 | 0.824 | 1.51 | 0.674 | 0.798 | 0.802
20 | AAGUUUGCUAGCAGUCGCAAG [Fam3.1 aminoacylation ribozyme variant] | 1.08 | 1.04 | 0.91 | 1.19 | 1.85 | 1.03
21 | AAGUUUGCUAGUAAUCGCAAG [Fam3.1 aminoacylation ribozyme variant] | 0.819 | 0.733 | 0.849 | 0.761 | 0.961 | 0.789
22 | AAGUUUGCUAGUAGUUGCAAG [Fam3.1 aminoacylation ribozyme variant] | 0.737 | 0.791 | 1.1 | 0.985 | 0.949 | 1.04
23 | AAGUUUGCUAUUAGUCCCAAG [Fam3.1 aminoacylation ribozyme variant] | 1.02 | 1.04 | 2 | 0.989 | 1.45 | 0.99
24 | AAGUUUGCUAUUAGUCGCUAG [Fam3.1 aminoacylation ribozyme variant] | 0.85 | 0.815 | 0.805 | 0.864 | 1.16 | 1.01
25 | AAGUUUGCUAUUAGUUGCAAG [Fam3.1 aminoacylation ribozyme variant] | 0.874 | 0.96 | 1.01 | 0.855 | 1.46 | 0.859
26 | AAGUUUGCUCAUUGUCGCAAG [Fam3.1 aminoacylation ribozyme variant] | 0.968 | 0.923 | 1.89 | 0.875 | 3 | 1.09

Row | Sequence | self-aminoacylation (biotinyl-Val-oxazolone) | self-aminoacylation (biotinyl-Leu-oxazolone) | self-aminoacylation (biotinyl-Trp-oxazolone) | self-aminoacylation (biotinyl-Ile-oxazolone) | self-aminoacylation (biotinyl-Phe-oxazolone) | self-aminoacylation (biotinyl-Met-oxazolone)
27 | AAGUUUGCUGAUAGUCGCAAU [Fam3.1 aminoacylation ribozyme variant] | 1.33 | 1.09 | 1.87 | 1.71 | 1.68 | 1.22
28 | AAGUUUGCUUAUAGUCGCGAG [Fam3.1 aminoacylation ribozyme variant] | 1.03 | 0.821 | 1.53 | 1.01 | 0.935 | 1.07
29 | AAGUUUGGGAAUAGUCGCAAG [Fam3.1 aminoacylation ribozyme variant] | 1.25 | 1.05 | 1.69 | 1.32 | 1.95 | 0.876
30 | AAGUUUGGUAAUACUCGCAAG [Fam3.1 aminoacylation ribozyme variant] | 1.04 | 0.673 | 0.719 | 1.06 | 1.07 | 0.998
31 | AAGUUUGGUAAUAGGCGCAAG [Fam3.1 aminoacylation ribozyme variant] | 0.775 | 0.761 | 0.712 | 0.692 | 0.618 | 0.705
32 | AAGUUUGGUAAUAGUCGCAAA [Fam3.1 aminoacylation ribozyme variant] | 1.44 | 1.44 | 1.75 | 1.88 | 1.72 | 1.66
33 | AAGUUUGGUAAUAGUCGCAAC [Fam3.1 aminoacylation ribozyme variant] | 1.47 | 1.16 | 1.84 | 1.48 | 2.86 | 1.19
34 | AAGUUUGGUAAUAGUCGCAGG [Fam3.1 aminoacylation ribozyme variant] | 1.4 | 1.7 | 2.18 | 1.47 | 2.19 | 1.39
35 | AAGUUUGGUAAUAGUCGCCAG [Fam3.1 aminoacylation ribozyme variant] | 1.32 | 1.27 | 2.18 | 1.32 | 4.77 | 1.1
36 | AAGUUUGGUAAUAGUCGGAAG [Fam3.1 aminoacylation ribozyme variant] | 0.815 | 0.717 | 1.08 | 0.893 | 1.11 | 0.771
37 | AAGUUUGUCAAUAGUCGCAAG [Fam3.1 aminoacylation ribozyme variant] | 1.78 | 2.25 | 1.95 | 2.03 | 3.72 | 1.87
38 | AAGUUUGUUAAUUGUCGCAAG [Fam3.1 aminoacylation ribozyme variant] | 0.926 | 0.933 | 0.92 | 1.09 | 0.994 | 0.992
39 | AAGUUUGUUAGUAGUCGCAAG [Fam3.1 aminoacylation ribozyme variant] | 0.823 | 1.06 | 0.675 | 0.852 | 1.02 | 0.841
40 | AAGUUUUCUAAUAGUAGCAAG [Fam3.1 aminoacylation ribozyme variant] | 1.34 | 1.33 | 1.8 | 1.5 | 2.5 | 1.29
41 | AAGUUUUCUAAUAGUCGCAUG [Fam3.1 aminoacylation ribozyme variant] | 1.2 | 1.85 | 1.91 | 1.78 | 3.44 | 1.4
42 | AAGUUUUCUAAUAGUCGGAAG [Fam3.1 aminoacylation ribozyme variant] | 1.31 | 1.14 | 1.21 | 1.44 | 1.99 | 1.25
43 | AAGUUUUCUACUAGUCGCAAG [Fam3.1 aminoacylation ribozyme variant] | 1.51 | 1.79 | 1.86 | 1.99 | 3.09 | 1.67
44 | AAGUUUUCUGAUAGUCGCAAG [Fam3.1 aminoacylation ribozyme variant] | 1.38 | 1.55 | 1.81 | 1.77 | 2.8 | 1.56
45 | AAGUUUUGUAAUAGUCGCAAG [Fam3.1 aminoacylation ribozyme variant] | 1.55 | 1.5 | 1.84 | 1.64 | 2.1 | 1.53
46 | AAUAACCUAGGUCAUCGGGUG [Fam2.2 aminoacylation ribozyme variant] | 3.3 | 4.57 | 5.23 | 3.18 | 22.8 | 4.25
47 | AAUACACUGGUCAUCGAGUGA [Fam2.1 aminoacylation ribozyme variant] | 3.4 | 4.56 | 6.47 | 3.65 | 8.92 | 4.13
48 | AAUACCCUGGACAUCGAGUGA [Fam2.1 aminoacylation ribozyme variant] | 2.25 | 4.14 | 5.44 | 2.25 | 10.5 | 3.95
49 | AAUACCCUGGCCAUCGAGUGA [Fam2.1 aminoacylation ribozyme variant] | 1.64 | 2.71 | 3.4 | 1.85 | 2.33 | 2.08
50 | AAUACCCUGGUAAUCGAGUGA [Fam2.1 aminoacylation ribozyme variant] | 3.37 | 8.53 | 10.3 | 3.96 | 38.5 | 7.38
51 | AAUACCCUGGUCAACGAGUGA [Fam2.1 aminoacylation ribozyme variant] | 2.53 | 4.32 | 5.89 | 2.88 | 11.1 | 4.19
